Biological target: baker's yeast alcohol dehydrogenase (baker's yeast) (UniProt P00330)
Assay: native MS; nano-ESI from 0.2 mol/L ammonium acetate, protein 2 to 5 x 10^-6 mol/L, Q Exactive UHMR modified for deposition

stoichiometry N: 4
Substance: baker's yeast alcohol dehydrogenase (from UniProt P00330 1-348) (enzyme)
